Assay results reported in PMC9020777.
pKd: −log10 of the molar value.

Key:
Assay in all cases: FRET or BRET
[1] = target: mCerulean3-BCL-XL (human) (UniProt Q07817)
[2] = target: mCerulean3-BCL-2 (human) (UniProt P10415)
[3] = target: mCerulean3-BCL-W (mouse) (UniProt P70345)
Sequence of mCerulean3-BCL-W (mouse) (P70345 whole entry): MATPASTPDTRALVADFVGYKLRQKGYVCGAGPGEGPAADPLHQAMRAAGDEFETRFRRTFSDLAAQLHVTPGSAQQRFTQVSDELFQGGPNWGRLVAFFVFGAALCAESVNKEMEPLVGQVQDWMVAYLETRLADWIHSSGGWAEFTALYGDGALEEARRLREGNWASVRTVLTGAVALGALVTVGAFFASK

Sequence of mCerulean3-BCL-XL (human) (Q07817 whole entry): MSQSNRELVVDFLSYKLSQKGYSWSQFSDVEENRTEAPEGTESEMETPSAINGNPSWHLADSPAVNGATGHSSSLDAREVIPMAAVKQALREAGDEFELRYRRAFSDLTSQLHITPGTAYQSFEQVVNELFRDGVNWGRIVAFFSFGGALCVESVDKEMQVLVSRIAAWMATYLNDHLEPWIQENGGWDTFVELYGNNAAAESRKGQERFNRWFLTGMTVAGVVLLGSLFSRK
Sequence of mCerulean3-BCL-2 (human) (P10415 whole entry): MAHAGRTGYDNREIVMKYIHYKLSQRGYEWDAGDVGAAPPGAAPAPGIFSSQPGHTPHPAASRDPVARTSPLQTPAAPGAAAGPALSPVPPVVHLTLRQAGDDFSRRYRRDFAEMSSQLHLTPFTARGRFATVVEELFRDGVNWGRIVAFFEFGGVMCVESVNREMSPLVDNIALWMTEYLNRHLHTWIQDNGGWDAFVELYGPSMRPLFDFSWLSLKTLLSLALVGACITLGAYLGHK

- pKd [1]: 5.30
- pKd [2]: 5.52
- pKd [3]: 5.22
Substance: Venus-tBID (natural protein)
